These are literature values, as cited in paper PMC6963778.

pKd: −log10 of the molar value.

The data set addresses RNF4 (Homo sapiens) (UniProt P78317).

For RNF4 (from UniProt P78317), the pKd is 6.74.
